Results reported in US9051572.

Experiments:
[1] = molecular target: in vitro translated [35S] TAp73α (UniProt O15350)
[2] = molecular target: Purified recombinant ubiquitin containing an amino terminal FLAG sequence (UniProt P0CG48)
[3] = molecular target: in vitro translated [35S] TAp73δ (UniProt O15350)
[4] = molecular target: in vitro translated [35S] p53 (UniProt P04637)

Substance | in vitro ubiquitination (higher molecular weight [35S] species on SDS-PAGE) [1] | ELISA for self-ubiquitination of Itch, OD450 signal [2] | in vitro ubiquitination (higher molecular weight [35S] species on SDS-PAGE) [3] | in vitro ubiquitination (higher molecular weight [35S] species on SDS-PAGE) [4]
GST-Itch MUT (C830A), Thr 277 to Glu 903 | this mutant, that retains the ability to bind TAp73 ... lost the ability to promote TAp73 ... ubiquitination | a background signal of 0.093 was obtained | – | –
GST-Itch, from Thr 277 to Glu 903 (lacking the N-terminal C2 domain) | protein was ubiquitinated, as shown by the appearance of discrete higher molecular weight | an assay OD450 signal of 1.972 was obtained | The inability of Itch to ubiquitinate p738 and p53 | The inability of Itch to ubiquitinate p738 and p53
